Assay [1] concerns the target LRP5 (Zmax1) (UniProt O75197). Kind of assay: cell-based or functional assay.
Assay [2] addresses Frizzled4 (UniProt Q9ULV1). Kind of assay: cell-based or functional assay.
Sequence of UniProt Q9ULV1 (Q9ULV1 37-537 limits assumed): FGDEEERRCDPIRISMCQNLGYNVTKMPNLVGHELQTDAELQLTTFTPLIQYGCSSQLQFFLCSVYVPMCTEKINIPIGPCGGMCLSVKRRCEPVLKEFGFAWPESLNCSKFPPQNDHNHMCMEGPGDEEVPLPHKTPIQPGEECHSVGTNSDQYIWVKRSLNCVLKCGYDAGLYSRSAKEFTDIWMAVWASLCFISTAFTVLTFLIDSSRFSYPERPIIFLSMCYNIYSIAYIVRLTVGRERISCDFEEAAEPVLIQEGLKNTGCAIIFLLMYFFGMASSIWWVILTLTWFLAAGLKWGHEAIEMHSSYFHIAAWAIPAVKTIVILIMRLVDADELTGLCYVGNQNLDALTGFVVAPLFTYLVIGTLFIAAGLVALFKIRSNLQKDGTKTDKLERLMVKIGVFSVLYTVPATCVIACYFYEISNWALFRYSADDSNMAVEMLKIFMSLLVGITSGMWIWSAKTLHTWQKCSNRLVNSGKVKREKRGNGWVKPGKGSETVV

Sequence of Norrin (Q00604 25-133 limits assumed): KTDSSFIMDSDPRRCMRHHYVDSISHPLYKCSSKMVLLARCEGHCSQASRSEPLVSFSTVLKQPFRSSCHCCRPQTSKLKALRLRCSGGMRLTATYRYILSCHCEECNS
Sequence of UniProt O75197 (O75197 32-1615 limits assumed): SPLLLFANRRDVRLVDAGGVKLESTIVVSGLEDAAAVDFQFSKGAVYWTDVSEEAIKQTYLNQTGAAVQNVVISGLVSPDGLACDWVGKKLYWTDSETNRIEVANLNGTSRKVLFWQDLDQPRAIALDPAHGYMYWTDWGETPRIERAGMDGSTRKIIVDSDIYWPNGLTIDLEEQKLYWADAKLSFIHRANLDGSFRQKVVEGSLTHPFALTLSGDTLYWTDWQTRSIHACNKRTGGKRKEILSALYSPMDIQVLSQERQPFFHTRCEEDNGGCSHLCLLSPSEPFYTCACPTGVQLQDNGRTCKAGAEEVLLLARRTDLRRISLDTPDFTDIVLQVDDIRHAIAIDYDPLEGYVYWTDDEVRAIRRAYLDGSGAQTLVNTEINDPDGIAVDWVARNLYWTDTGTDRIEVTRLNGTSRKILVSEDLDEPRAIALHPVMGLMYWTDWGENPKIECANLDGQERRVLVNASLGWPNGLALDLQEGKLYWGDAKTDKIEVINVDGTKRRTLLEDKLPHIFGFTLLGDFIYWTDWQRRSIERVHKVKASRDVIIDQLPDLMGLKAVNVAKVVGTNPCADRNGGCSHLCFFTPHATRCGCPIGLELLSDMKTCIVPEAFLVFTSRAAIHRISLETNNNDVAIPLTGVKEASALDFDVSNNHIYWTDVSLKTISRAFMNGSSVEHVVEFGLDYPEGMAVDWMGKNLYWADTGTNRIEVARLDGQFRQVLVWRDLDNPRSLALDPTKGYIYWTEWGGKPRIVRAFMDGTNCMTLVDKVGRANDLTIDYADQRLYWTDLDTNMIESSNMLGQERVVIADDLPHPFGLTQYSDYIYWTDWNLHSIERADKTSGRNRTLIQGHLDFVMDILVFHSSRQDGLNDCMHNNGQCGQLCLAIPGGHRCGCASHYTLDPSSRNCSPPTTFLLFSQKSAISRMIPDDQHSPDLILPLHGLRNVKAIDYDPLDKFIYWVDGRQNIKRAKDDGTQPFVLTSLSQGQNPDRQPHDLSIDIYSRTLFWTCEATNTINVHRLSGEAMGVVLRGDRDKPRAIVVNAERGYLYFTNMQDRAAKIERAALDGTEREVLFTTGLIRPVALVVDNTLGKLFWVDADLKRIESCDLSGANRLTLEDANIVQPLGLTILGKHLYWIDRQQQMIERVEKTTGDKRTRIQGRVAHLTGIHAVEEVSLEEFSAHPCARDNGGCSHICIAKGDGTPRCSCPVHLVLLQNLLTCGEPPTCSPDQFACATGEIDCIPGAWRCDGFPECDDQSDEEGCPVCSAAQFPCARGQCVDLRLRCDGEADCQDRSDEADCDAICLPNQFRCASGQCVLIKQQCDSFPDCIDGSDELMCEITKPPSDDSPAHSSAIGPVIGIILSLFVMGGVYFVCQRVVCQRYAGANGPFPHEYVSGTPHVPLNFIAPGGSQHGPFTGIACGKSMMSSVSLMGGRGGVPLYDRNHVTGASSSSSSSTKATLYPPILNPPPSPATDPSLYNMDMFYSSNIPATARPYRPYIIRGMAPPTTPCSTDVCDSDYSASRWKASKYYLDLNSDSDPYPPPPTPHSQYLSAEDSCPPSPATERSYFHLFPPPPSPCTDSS

In the case of “Norrin (from UniProt Q00604 25-133) (ligand)”, in assay [1], the ratio of TCF-luci to renilla luminescence, Norrin and LRP5 co-transfected in U20S cells stood at 6 fold. In addition, in assay [2], the TCF activity, further enhancement when Fz4, LRP5 and Norrin were all co-transfected in U20S cells is 2 to 6 fold; the TCF response (TCF-luci to renilla), Norrin and Fz4 co-transfected in HEK-293A cells stood at 6 fold; the TCF-signal, LRP5 co-transfected along with Fz4 and Norrin in HEK-293 cells was < 16 fold; the ratio of TCF-luci to renilla luminescence, Norrin cDNA alone transfected in U20S cells (endogenous Fz4 inferred) fell in the range of 2 to 3 fold. Besides, the ratio of TCF-luci to renilla signal, Fz4 and Norrin co-transfected in U20S cells in assay [2] came out at 15 fold.

Source of the values: patent US20070196872A1.
